Data on one substance can be found in US10226509B2, “Lymphangiogenesis inhibitors for cancer and for graft survival” (TUFTS UNIVERSITY, priority 2014, dated 2019).

The target of one experiment is T1, VEGF-C (Homo sapiens, UniProt P49767).
T1 construct: Primary LECs were incubated with agarose beads (control), and galectin-conjugated agarose beads at 4° C. overnight; endogenous in cells; host or cells: primary lymphatic endothelial cells (LECs)
T1 sequence (P49767 112-227): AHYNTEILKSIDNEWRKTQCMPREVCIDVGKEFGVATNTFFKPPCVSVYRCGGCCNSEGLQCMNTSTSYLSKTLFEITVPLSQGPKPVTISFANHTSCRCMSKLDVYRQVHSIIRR
The experiment is described as follows: Affinity precipitation assay, VEGF-C. The class given is binding. The conditions noted are these: galectin-conjugated agarose beads.

The target of another experiment is T2, PDPN and integrin α5β1 (Homo sapiens, UniProt P05556+P08648+Q86YL7).
T2 construct: endogenous in cells; host or cells: primary lymphatic endothelial cells (LECs)
T2 sequence (P08648 42-894 limits assumed, one chain of several): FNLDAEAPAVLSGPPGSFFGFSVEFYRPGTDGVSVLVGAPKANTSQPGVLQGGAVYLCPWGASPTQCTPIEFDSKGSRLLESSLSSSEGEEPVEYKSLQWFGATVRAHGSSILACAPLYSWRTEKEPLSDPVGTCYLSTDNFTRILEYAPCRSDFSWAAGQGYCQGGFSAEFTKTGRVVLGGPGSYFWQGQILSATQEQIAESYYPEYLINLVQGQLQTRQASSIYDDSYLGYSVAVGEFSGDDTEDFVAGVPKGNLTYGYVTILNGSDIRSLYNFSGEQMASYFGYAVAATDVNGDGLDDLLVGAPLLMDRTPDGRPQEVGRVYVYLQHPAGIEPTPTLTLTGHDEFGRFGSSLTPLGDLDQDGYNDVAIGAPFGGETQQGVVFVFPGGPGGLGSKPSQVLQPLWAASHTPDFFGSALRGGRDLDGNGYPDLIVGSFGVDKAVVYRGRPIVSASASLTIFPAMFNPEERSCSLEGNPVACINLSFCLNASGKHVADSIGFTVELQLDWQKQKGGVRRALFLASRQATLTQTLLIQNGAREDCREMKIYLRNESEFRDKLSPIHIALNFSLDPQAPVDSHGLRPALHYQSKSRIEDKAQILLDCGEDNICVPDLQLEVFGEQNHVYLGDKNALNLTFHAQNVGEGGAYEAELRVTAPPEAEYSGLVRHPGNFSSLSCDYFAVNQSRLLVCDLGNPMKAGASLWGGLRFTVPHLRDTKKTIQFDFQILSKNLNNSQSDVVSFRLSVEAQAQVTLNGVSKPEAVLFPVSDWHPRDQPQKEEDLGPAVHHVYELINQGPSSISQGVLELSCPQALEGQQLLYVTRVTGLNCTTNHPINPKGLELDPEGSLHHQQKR
T2 sequence (P08648 895-1049 limits assumed, one chain of several): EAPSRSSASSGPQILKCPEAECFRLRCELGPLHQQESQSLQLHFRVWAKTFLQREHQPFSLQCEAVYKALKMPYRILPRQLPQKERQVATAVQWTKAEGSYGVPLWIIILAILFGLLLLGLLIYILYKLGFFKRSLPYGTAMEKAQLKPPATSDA
T2 sequence (P05556 21-798, one chain of several): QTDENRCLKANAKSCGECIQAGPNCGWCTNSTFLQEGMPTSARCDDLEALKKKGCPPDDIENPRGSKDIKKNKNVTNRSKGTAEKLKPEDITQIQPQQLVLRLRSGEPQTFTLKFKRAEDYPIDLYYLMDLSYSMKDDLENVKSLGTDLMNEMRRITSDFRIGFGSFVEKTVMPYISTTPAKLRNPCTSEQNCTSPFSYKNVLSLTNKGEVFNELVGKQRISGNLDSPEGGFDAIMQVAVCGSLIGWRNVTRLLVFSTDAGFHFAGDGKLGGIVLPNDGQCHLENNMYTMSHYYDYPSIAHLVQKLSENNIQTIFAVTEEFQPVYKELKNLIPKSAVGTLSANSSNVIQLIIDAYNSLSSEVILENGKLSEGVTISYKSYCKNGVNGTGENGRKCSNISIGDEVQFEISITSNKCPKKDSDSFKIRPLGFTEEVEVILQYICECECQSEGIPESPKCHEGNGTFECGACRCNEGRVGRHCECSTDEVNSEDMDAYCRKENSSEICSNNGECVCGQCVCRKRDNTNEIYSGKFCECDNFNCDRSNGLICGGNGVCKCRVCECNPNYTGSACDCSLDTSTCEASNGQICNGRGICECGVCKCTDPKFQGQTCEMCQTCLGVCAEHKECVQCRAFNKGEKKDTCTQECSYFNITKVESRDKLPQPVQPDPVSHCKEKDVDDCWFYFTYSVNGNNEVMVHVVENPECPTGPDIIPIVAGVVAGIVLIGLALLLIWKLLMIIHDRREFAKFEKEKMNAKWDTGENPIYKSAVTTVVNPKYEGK
The experiment is described as follows: Immunoprecipitation with anti-PDPN from LEC lysates. The class given is cell-based. Particulars: galectin-8 for 15 min at 37° C. How it is done:
Mouse isotype antibody (15 μg, Santa Cruz Biotechnology) and anti-PDPN (15 μg, clone E-1, Santa Cruz Biotechnology) were immobilized onto AminoLink Plus coupling resin (Pierce) by sodium cyanoborohydride according to manufacturer's instructions. Primary LECs were serum-starved overnight and treated with galectin-8 (0.2 μM) for 15 min at 37° C. After treatment, cells were lysed with IP lysis/wash buffer (25 mM Tris, 150 mM NaCl, 1 mM EDTA, 1% NP-40, 5% glycerol; pH 7.4) supplemented with protease inhibitor cocktails (Roche). After centrifugation (10 min, 13,000 rpm), supernatants (500 μg protein lysates) were pre-cleared by incubation for 1 hour with Pierce control agarose resin at 4° C. The clarified samples were incubated with the Ab-conjugated agarose resins overnight at 4° C. Immunoprecipitates were washed three times with IP lysis/wash buffer and once with conditioning buffer provided by the kit (Pierce). The bound proteins were eluted with low pH elution buffer, neutralized with Tris-HCl (pH 9.0), and analyzed with control inputs by western blotting using anti-integrin al (1:1,000, Abcam), anti-integrin α5 (clone H-104, 1:1,000, Santa Cruz Biotechnology), anti-integrin ([…] (clone N-20, 1:1,000, Santa Cruz Biotechnology), anti-PDPN, anti-galectin-8 (clone NBP1-66520, 1:1,000, Novus Biologicals) and anti-GAPDH as described in examples herein. […]

The target of a further experiment is T3, PDPN (Homo sapiens, UniProt Q86YL7).
T3 construct: Within the whole cell lysate, an anti-PDPN-reactive 43-kDa component was detected; host or cells: primary lymphatic endothelial cells (LECs)
T3 sequence (Q86YL7 23-162): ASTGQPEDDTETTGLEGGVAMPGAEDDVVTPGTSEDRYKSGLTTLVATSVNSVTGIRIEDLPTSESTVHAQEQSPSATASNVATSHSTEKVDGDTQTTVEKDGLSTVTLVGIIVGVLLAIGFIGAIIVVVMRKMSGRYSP
The experiment is described as follows: Affinity precipitation assay, PDPN. Format: binding. Particulars: galectin-conjugated agarose beads, LEC lysates. How it is done:
Five mg of plant lectins (Vector Labs) and galectins were conjugated to 330 mg of Pierce® NHS-activated agarose dry resin in accordance with the manufacturer's instructions (Thermo Scientific). Primary LECs (Lonza) were lysed in Triton lysis buffer (20 mM Tris-HCl, pH 7.4; 150 mM NaCl; 0.5% Triton X-100 with protease inhibitor cocktail). LEC lysates (250 μg in 500 μL lysis buffer supplemented with 10 mM MgCl2) were incubated with 40 μL (50% slurry) of agarose-conjugated lectins (4° C., overnight). Beads were pelleted by centrifugation at 3000 rpm for 1 min. Non-specific binding proteins were removed by washing the beads with Triton lysis buffer once and PBS twice. Supernatants were discarded; bound proteins were eluted by boiling the beads with 20 μL of 2× Laemmli sample buffer for 7 min, and examined by western blotting.
To determine whether PDPN binds to Gal-8 in a carbohydrate-dependent manner, LEC lysates were incubated with Gal-8-conjugated to agarose beads in the presence or absence of 0.1 M of lactose (an inhibiting sugar) or sucrose (a non-inhibiting sugar). Bound proteins were examined with total cell lysates (input) by western blot using an anti-PDPN antibody. To determine specificity of PDPN binding to Gal-8, LEC lysates were also incubated with agarose beads conjugated to Gal-1, Gal-3 and Gal-7. Within the whole cell lysate, an anti-PDPN-reactive 43-kDa component was detected (FIG. 7A).

The subject of a further experiment is LEC plasma membrane. The experiment is described as follows: Immunocytochemistry / confocal microscopy of receptor clustering on LECs. Format: cell-based, human. The protocol: […] Cells were blocked with Image-iT® signal enhancer (30 min, 25° C., Invitrogen) and incubated with primary antibodies (rat anti-human PDPN, 1:300, BioLegend; mouse anti-human VEGFR-3, 9D9F9, 1:100, BioLegend; rabbit anti-Gal-8, H-80, 1:100, Santa Cruz Biotechnology) in 2% BSA/PBS at 4° C. overnight. The cells were then washed with 2% BSA/PBS three times and incubated with appropriate secondary antibodies (Alexa Fluor® 488 anti-mouse, 1:200, Invitrogen; Alexa Fluor® 568 anti-rabbit, 1:200, Invitrogen; Alexa Fluor 647® anti-rat, 1:300, Jackson ImmunoResearch) at 25° C. for 1 hr. Cells were washed with PBS, slides were mounted with ProLong Gold antifade reagent with DAPI (Invitrogen) and were examined with the Leica TCS SPE imaging system (Leica).
Since galectin-glycan lattices segregate the cell surface receptors into discrete domains to initiate cell signaling (Lajoie, P., et al. 2009. J Cell Biol 185:381-385), assays were performed to determine whether Gal-8 clusters PDPN and VEGFR-3 on LEC plasma membrane. LECs were treated with Gal-8 for 15 minutes, fixed, stained with anti-PDPN, VEGFR-3 and Gal-8 antibodies, and examined by confocal microscopy. In control cells, which were incubated with buffer only, both PDPN and VEGFR-3 were homogenously distributed all over the LEC and in cell borders; endogenous Gal-8 was mainly distributed in cytosol (FIG. 9A-FIG. 9D). […]

On to “Gal-8: recombinant galectin-8, tandem-repeat type galectin with two different CRDs”, for which the “binding to VEGF-C (in words)” value with VEGF-C is “does not interact with VEGF-C”. In addition, the “association between PDPN and integrin α5β1” value in the experiment with PDPN and integrin α5β1 was “increased association between PDPN and integrin α5β1”. The “binding of PDPN (in words)” value with PDPN is reported as “binds”. Besides, the “distribution of PDPN and VEGFR-3 on LECs” value in the experiment with LEC plasma membrane (Gal-8 for 15 minutes) was “caused dramatic redistribution and clustering of PDPN and VEGFR-3 on LEC plasma membrane”. Further, in the experiment on LEC plasma membrane (galectin-8 for 15 minutes, no permeabilization), the “distribution of PDPN and integrin β1 on LECs” value was “caused dramatic redistribution and clustering of PDPN and integrin β1 on LEC plasma membrane”.
